Source: patent US20080044815A1, “Genetic Screen for Interaction Interface Mapping” (priority 2003, published 2008)
Entries after “also recorded” stand apart in the source; their conditions may differ.

T1: MKK7 (Mus musculus, UniProt Q8CE90)
T1 construct: expressed in transfected cells; host or cells: COS cells
T1 sequence (Q8CE90 1-419 isoform Q8CE90-2): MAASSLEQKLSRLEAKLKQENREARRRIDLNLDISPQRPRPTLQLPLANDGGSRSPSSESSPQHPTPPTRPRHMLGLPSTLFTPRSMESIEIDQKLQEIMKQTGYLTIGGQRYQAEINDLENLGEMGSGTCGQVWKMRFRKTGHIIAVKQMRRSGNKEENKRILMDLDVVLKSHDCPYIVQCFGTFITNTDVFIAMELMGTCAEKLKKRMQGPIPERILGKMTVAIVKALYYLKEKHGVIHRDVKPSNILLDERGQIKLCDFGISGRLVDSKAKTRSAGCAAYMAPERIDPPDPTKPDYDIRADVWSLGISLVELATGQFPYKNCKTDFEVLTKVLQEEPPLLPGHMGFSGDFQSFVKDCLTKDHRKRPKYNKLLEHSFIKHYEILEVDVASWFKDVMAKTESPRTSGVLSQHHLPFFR

B1: Leu-131-Arg: single point mutant of human JNK1 (SEQ ID NO: 1) (protein)
chain: MSRSKRDNNFYSVEIGDSTFTVLKRYQNLKPIGSGAQGIVCAAYDAILERNVAIKKLSRPFQNQTHAKRAYRELVLMKCVNHKNIIGLLNVFTPQKSLEEFQDVYIVMELMDANLCQVIQMELDHERMSYRLYQMLCGIKHLHSAGIIHRDLKPSNIVVKSDCTLKILDFGLARTAGTSFMMTPYVVTRYYRAPEVILGMGYKENVDLWSVGCIMGEMVCHKILFPGRDYIDQWNKVIEQLGTPCPEFMKKLQPTVRTYVENRPKYAGYSFEKLFPDVLFPADSEHNKLKASQARDLLSKMLVIDASKRISVDEALQHPYINVWYDPSEAEAPPPKIPDKQLDEREHTIEEWKELIYKEVMDLEERTKNGVIRGQPSPLAQVQQ
modifications: homo sapiens
B2: Tyr-320-His: single point mutant of human JNK1 (SEQ ID NO: 1) (protein)
chain: MSRSKRDNNFYSVEIGDSTFTVLKRYQNLKPIGSGAQGIVCAAYDAILERNVAIKKLSRPFQNQTHAKRAYRELVLMKCVNHKNIIGLLNVFTPQKSLEEFQDVYIVMELMDANLCQVIQMELDHERMSYLLYQMLCGIKHLHSAGIIHRDLKPSNIVVKSDCTLKILDFGLARTAGTSFMMTPYVVTRYYRAPEVILGMGYKENVDLWSVGCIMGEMVCHKILFPGRDYIDQWNKVIEQLGTPCPEFMKKLQPTVRTYVENRPKYAGYSFEKLFPDVLFPADSEHNKLKASQARDLLSKMLVIDASKRISVDEALQHPHINVWYDPSEAEAPPPKIPDKQLDEREHTIEEWKELIYKEVMDLEERTKNGVIRGQPSPLAQVQQ
modifications: homo sapiens
B3: wildtype JNK1: FLAG-tagged wild-type human JNK1 (SEQ ID NO: 1) expressed from pCMV-FLAG-JNK1 (protein)
chain: MSRSKRDNNFYSVEIGDSTFTVLKRYQNLKPIGSGAQGIVCAAYDAILERNVAIKKLSRPFQNQTHAKRAYRELVLMKCVNHKNIIGLLNVFTPQKSLEEFQDVYIVMELMDANLCQVIQMELDHERMSYLLYQMLCGIKHLHSAGIIHRDLKPSNIVVKSDCTLKILDFGLARTAGTSFMMTPYVVTRYYRAPEVILGMGYKENVDLWSVGCIMGEMVCHKILFPGRDYIDQWNKVIEQLGTPCPEFMKKLQPTVRTYVENRPKYAGYSFEKLFPDVLFPADSEHNKLKASQARDLLSKMLVIDASKRISVDEALQHPYINVWYDPSEAEAPPPKIPDKQLDEREHTIEEWKELIYKEVMDLEERTKNGVIRGQPSPLAQVQQ
modifications: FLAG tag; homo sapiens
B4: Arg-309-Trp: single point mutant of human JNK1 (SEQ ID NO: 1) (protein)
chain: MSRSKRDNNFYSVEIGDSTFTVLKRYQNLKPIGSGAQGIVCAAYDAILERNVAIKKLSRPFQNQTHAKRAYRELVLMKCVNHKNIIGLLNVFTPQKSLEEFQDVYIVMELMDANLCQVIQMELDHERMSYLLYQMLCGIKHLHSAGIIHRDLKPSNIVVKSDCTLKILDFGLARTAGTSFMMTPYVVTRYYRAPEVILGMGYKENVDLWSVGCIMGEMVCHKILFPGRDYIDQWNKVIEQLGTPCPEFMKKLQPTVRTYVENRPKYAGYSFEKLFPDVLFPADSEHNKLKASQARDLLSKMLVIDASKWISVDEALQHPYINVWYDPSEAEAPPPKIPDKQLDEREHTIEEWKELIYKEVMDLEERTKNGVIRGQPSPLAQVQQ
modifications: homo sapiens

Columns and labels:
[1] = target: T2, TI-JIP (Homo sapiens, UniProt Q9UQF2); assay: Yeast two-hybrid screening / β-galactosidase overlay assay of JNK1 point mutants for interaction with TI-JIP; type: cell-based; details: single point mutants of JNK1, full-length expression confirmed by Western blot
T2 construct: Oligonucleotides encoding TI-JIP were annealed; expressed in transfected cells; host or cells: yeast diploids, RFY 206 (pSH18-34, pGILDA-TI-JIP) mated to PRT 49 (JNK mutants in pJG4-5)

[2] = target: T1, MKK7; assay: Phospho-blotting for dual-phosphorylated JNK in COS cells co-transfected with MKK7; type: cell-based; details: antibody to dual-phosphorylated JNK
[3] = system: GST-MKK4(ED); assay: In vitro phosphorylation (activation) of immunoprecipitated JNK by constitutively active MKK4; type: biochemical; details: [32P]-ATP, relative to autophosphorylation
Protocol: FIG. 15a is a representation showing that JNK mutants were not activated by constitutively-active MKK4 (MKK4(ED)) or MKK7. […] JNK proteins were immunoprecipitated from transfected cell lysates, and immunoprecipitates were used as the substrates in in vitro kinase assays with GST-MKK4(ED). Following separation by SDS-PAGE, activation of JNK and mutant proteins was assessed by autoradiography (upper panel) (n=2). Coomassie Blue staining (lower panel) confirmed substrate loading.
FLAG-JNK1 proteins were immunoprecipitated by addition of anti-FLAG M2 (SIGMA) and incubation for 1 h on ice and then addition of Protein G-Sepharose and incubation at 4° C. for 2 h with rotation. Immunocomplexes were washed three times with lysis buffer, then once with reaction buffer (20 mM HEPES, 20 mM MgCl2, 20 mM β-glycerophosphate, 500 μM DTT, 100 μM Na3VO4; pH 7.6). For assays of JNK activity, the washed complexes were resuspended in 40 μL of reaction buffer containing 10 μg GST-c-Jun (1-135), 20 μM ATP and 1 μCi [λ-^32P]ATP and incubated at 30° C. for 30 min. Reactions were stopped by addition of 3× SDS-PAGE Sample Buffer and proteins were separated by SDS-PAGE. JNK activity towards GST-c-Jun (1-135) was visualized by autoradiography and quantitated by Cerenkov counting. For assays of JNK activation, the washed beads were incubated with 30 μL of reaction buffer containing 20 μM ATP, 5 μCi [λ-^32P]ATP and 1 μg of GST-MKK4(ED) at 30° C. for 1 h with occasional mixing. After removal of the supernatant, the beads were washed in 200 μl ice-cold lysis buffer and then heated for 5 min at 100° C. in 15 μL of 3× SDS-PAGE sample buffer, prior to separation by SDS-PAGE. Gels were Coomassie-stained, dried and used for autoradiography. Gel bands corresponding to FLAG-JNK were excised from the gels and their radioactivity quantitated by Cerenkov counting. Where immunoprecipitated GST-MKK7β1 was used to activate JNK, reactions were performed as above, but with 1 μCi [λ-^32P]ATP and incubation at 30° C. for 30 min.

[4] = system: GST-c-Jun(1-135); assay: In vitro kinase assay of FLAG-immunoprecipitated JNK1 from transfected COS cells towards GST-c-Jun(1-135); type: biochemical
Protocol: FIG. 14b is a representation showing a typical autoradiograph (upper panel) illustrating phosphorylation of GST-c-Jun(1-135) by wild-type (WT) JNK and mutants (n=2) for COS cells transfected as described in the legend to FIG. 14a. Transfected cells were incubated without sorbitol or exposed to hyperosmotic shock (0.5 M sorbitol, 30 min) prior to lysis. FLAG-tagged JNK1 and mutants were immunoprecipitated from cell lysates and then assayed for activity towards GST-c-Jun(1-135) using in vitro kinase assays. Coomassie Blue staining (lower panel) confirmed substrate loading.
FIG. 14c is a photographic representation showing a typical autoradiograph (upper panel) illustrating phosphorylation of GST-c-Jun(1-135) by wild-type (WT) JNK and mutants (n=2) for COS cells transfected as described in the legend to FIG. 14a, or co-transfected with a constitutively-active MEKK1 construct (CA-MEKK1). […]
FLAG-JNK1 proteins were immunoprecipitated by addition of anti-FLAG M2 (SIGMA) and incubation for 1 h on ice and then addition of Protein G-Sepharose and incubation at 4° C. for 2 h with rotation. […] JNK activity towards GST-c-Jun (1-135) was visualized by autoradiography and quantitated by Cerenkov counting. […] Gel bands corresponding to FLAG-JNK were excised from the gels and their radioactivity quantitated by Cerenkov counting. […]

Molecule	interaction of JNK1 mutant with TI-JIP [1]	interaction of JNK1 mutant with TI-JIP ([1]; listed as L131→R131)	phosphorylation/activation of JNK by MKK7 [2]	phosphorylation/activation of JNK by active MKK4 [3]	increase in c-Jun phosphorylation relative to cells transfected with JNK alone ([4]; COS cells co-transfected with constitutively-active MEKK1 (CA-MEKK1))	activation of c-Jun phosphorylation over corresponding unstimulated cells ([4]; COS cells, hyperosmotic shock 0.5 M sorbitol, 30 min)
B1	incapable of interaction with TI-JIP; also recorded: did not interact with TI-JIP	prevent interaction of JNK with TI-JIP	impaired in their activation	impaired in their activation	–	–
B2	–	–	–	impaired in their activation	–	–
B3	–	–	strongly phosphorylated by MKK7	increased the phosphorylation	240 fold	5.5 fold
B4	–	–	–	impaired in their activation	–	–
